The term Kd denotes the concentration at which binding is half-saturated. A higher Kd goes with a looser complex.

We go through ten molecules from patent US20110059095A1 (Regeneron, published 2011).

Assay [1] has as its target T1, Peptide A (human PAR-2), unbiotinylated (Human).
T1 construct: also called Peptide A No Biotin
T1 peptide: GTNRSSKGRSLIGKVDGT
Briefly: SPR, antibody captured, steady state. How it is done:
(§1) Equilibrium dissociation constants (KD values) for antigen binding to selected purified PAR-2 antibodies were determined by surface kinetics using a real-time surface plasmon resonance biosensor assay. Antibody was captured on either a rabbit anti-mouse IgG polyclonal antibody (GE Healthcare, Piscataway, N.J.) surface or a goat anti-human IgG polyclonal antibody (Jackson Immuno Research Lab, West Grove, Pa.) surface created through direct amine chemical coupling to a BIACORE™ CM5 sensor chip to form a captured antibody surface. […] Antigen-antibody binding and dissociation were monitored in real time at room temperature. Kinetic analysis was performed to calculate KD and half-life of antigen/antibody complex dissociation (Table 10). For those antibodies where no T_{1/2} value is shown, steady state analysis was used to calculate the KD value. NB: no binding observed under current experimental conditions. ND: not determined.
In general terms: In SPR one partner is held on a chip, and binding of the other changes the refractive index at the surface.

For assay [2], the target named is T1, Peptide A (human PAR-2), unbiotinylated. The assay is described as follows: peptide ELISA. Here is the method: (§2) Anti-PAR-2 antibodies were tested for their ability to bind to the PAR-2 peptides. Various PAR-2 Peptides (Table 3) were coated onto 96-well plates at a concentration of 2 μg/ml and incubated overnight followed by blocking in a suitable blocking agent for one hour. […] Purified anti-PAR-2 antibodies were added to the plate coated with PAR-2 peptides to a final concentration ranging from 0.2 to 2.0 μg/ml and incubated for one hour at room temperature. Detection of bound antibodies was determined with Horse-Radish Peroxidase (HRP) conjugated anti-mouse or human IgG (Jackson Immuno Research Lab, West Grove, Pa.) and developed by standard colorimetric response using tetramethylbenzidine (TMB) substrate. Absorbance was read at OD₄₅₀ for 0.1 second.
(In general: ELISA stands for enzyme-linked immunosorbent assay.)

Assay [3] addresses T2, Peptide B (human PAR-2), unbiotinylated (Human).
T2 construct: also called Peptide B No Biotin
T2 peptide: SLIGKVDGTSHVTG
The assay is described as follows: peptide ELISA. How it is done: as §2

In assay [4] the target is T3, Peptide C (human PAR-2), N-terminal biotinylated (Human).
T3 construct: also called Peptide C N-Term
T3 peptide: Biotin-GGGGSSLIGKV
Briefly: peptide ELISA. Here is the method: as §2

The target in assay [5] is T4, Peptide B (human PAR-2), C-terminal biotinylated (Human, not fully specified).
T4 construct: also called Peptide B C-Term
T4 peptide: SLIGKVDGTSHVTGGGGGS-biotin
The assay is described as follows: peptide ELISA. Here is the method:
as §2

Assay [6] concerns the target T5, Peptide A (human PAR-2), C-terminal biotinylated (Human, C-terminal biotin via G4S linker).
T5 construct: also called Peptide A C-Term
Briefly: peptide ELISA. Here is the method:
as §2

Assay [7] has as its target T6, Peptide B (human PAR-2), N-terminal biotinylated (Human).
T6 construct: also called Peptide B N-Term
T6 peptide: Biotin-GGGGSSLIGKVDGTSHVTG
The assay is described as follows: peptide ELISA. Here is the method:
as §2

The target of assay [8] is T7, Peptide C (human PAR-2), C-terminal biotinylated (Human).
T7 construct: also called Peptide C C-Term
T7 peptide: SLIGKVGGGGS-biotin
The assay is described as follows: peptide ELISA. How it is done:
as §2

The target in assay [9] is T8, Peptide A (human PAR-2), N-terminal biotinylated (Human, N-terminal biotin via G4S linker).
T8 construct: also called Peptide A N-Term
T8 peptide: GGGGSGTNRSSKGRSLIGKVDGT
Briefly: peptide ELISA. How it is done: as §2

The target in assay [10] is T1, Peptide A (human PAR-2), unbiotinylated. Briefly: SPR, antibody captured. Here is the method:
as §1

In assay [11] the target is T2, Peptide B (human PAR-2), unbiotinylated. Briefly: SPR, antibody captured. Here is the method: as §1
The target in the next assay is T9, full length human PAR-2 (human, UniProt P55085 26-397).
T9 construct: overexpressed on HEK293-derived 293/D9 cells; also called 293/D9/hPAR-2rec cells
T9 sequence (P55085 26-397 G138A limits assumed): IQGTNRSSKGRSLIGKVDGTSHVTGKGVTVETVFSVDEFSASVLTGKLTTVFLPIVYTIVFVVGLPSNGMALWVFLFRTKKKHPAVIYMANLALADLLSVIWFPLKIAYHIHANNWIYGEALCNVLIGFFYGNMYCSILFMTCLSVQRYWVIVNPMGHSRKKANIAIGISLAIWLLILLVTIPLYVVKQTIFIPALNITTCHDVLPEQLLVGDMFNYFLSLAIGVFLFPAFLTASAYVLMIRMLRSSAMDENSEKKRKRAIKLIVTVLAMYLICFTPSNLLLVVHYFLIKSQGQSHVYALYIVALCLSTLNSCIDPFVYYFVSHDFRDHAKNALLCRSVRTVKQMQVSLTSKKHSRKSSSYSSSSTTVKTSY
The assay is described as follows: cell ELISA, 10 ug/ml antibody. From the text: HEK293 cells were transfected with an NF-κB-luciferase-IRES-eGFP reporter plasmid. […] A clonal cell line, named D9, having low background levels of luciferase activity and high levels of eGFP when induced with IL-1β was made by a series of successive sorts of cell populations using flow cytometry. The 293/D9 cell line was then separately transfected with human PAR-2 or mouse PAR-2 to create the stable cell lines 293/D9/h PAR-2rec and 293/D9/m PAR-2rec, respectively.
Binding of anti-PAR-2 antibodies to 293/D9/hPAR-2rec cells was determined by ELISA. 293/D9 and 293/D9/hPAR-2rec cells were plated at a density of 5×10⁴ cells/well in media and incubated overnight at 37° C. and 5% CO₂. Purified antibody was added to the cells to a final concentration of 10 μg/ml and incubated at room temperature for one hour. Cells were then fixed and washed before detection of bound antibodies with HRP conjugated anti-mouse IgG and developed by standard colorimetric response using TMB substrate. Absorbance was read at OD₄₅₀ for 0.1 second.

Where no end group is shown, it is not given here. The star is where a group is joined. Biotin = O=C1N[C@H]2[C@H](CS[C@H]2CCCCC(=O)*)N1

B1: H1M612N (antibody, V domains shown)
VH: EVQLVESGGGLVQPGRSLRLSCAASGFTFDDYAMHWVRQAPGKGLEWVSGITWNSGNMAYADSVKGRFTISRDNAKNSLYLQMNSLRAEDTALYYCAKENWAFDYWGQGTRVIVSS
VL: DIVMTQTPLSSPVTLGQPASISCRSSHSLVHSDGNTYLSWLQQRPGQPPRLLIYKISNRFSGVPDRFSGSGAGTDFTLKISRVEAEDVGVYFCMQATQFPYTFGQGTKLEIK
notes: chimeric: human variable, mouse constant domains
In the case of B1, the affinity in assay [1], expressed as Kd, was 180 nM. For the same molecule, the OD450 in [2] was in the range of 1 to 4 od; in [3] it was 0 to 0.09 od; in [4], 0 to 0.09 od; in assay [5], 0 to 0.09 od; in assay [6] it was 1 to 4 od; in assay [7], 0 to 0.09 od. In addition, the OD450 lay within 0 to 0.09 od in assay [8] and 1 to 4 od in [9].

B2: H2M609N (antibody, V domains shown)
VH: EVQLVESGGGLVQPGRSLRLSCAASGFTFDDYAMHWVRQAPGKGLEWVSGISWNSGSKGFADSVKGRFTISRDNAKNSLYLQMNSLRVEDTALYYCAKENWSFDYWGQGTLVTVSS
VL: DIVMTQTPLSSPVTLGQPASISCRSSQSLVHSDGNIYLSWLQQRPGQPPRLLIYKISNRFSGVPDRFSGSGAGTDFTLKISRVEAEDVGIYYCMQASHFPYTFGQGTKLEIK
notes: as for B1
Take B2: the OD450 in assay [2] lay within 1 to 4 od; in assay [3], 0 to 0.09 od; in assay [4] it was 0 to 0.09 od; in [5], 0 to 0.09 od; in assay [6], 1 to 4 od; in assay [7] it was 0 to 0.09 od. Besides, the OD450 in [8] is 0 to 0.09 od; in [9] it was 1 to 4 od.

B3: H1M619N (antibody, V domains shown)
VH: EVQLVESGGGLVQAGRSLRLSCAASGFTFDDYAMHWVRQAPGKGLEWVSGISWNSGSRGYADSVKGRFTISRDNAKNSLHLQMYSLRAEDTALYYCAKENWSFDYWGQGTLVTVSS
VL: DIVMTQTPLSSPVTLGQPASISCRSSQSLVHSDGNTYLSWLQQRPGQPPRLLIYKISYRFSGVPDRFSGSGAGTDFTLKISRVATEDVGVYYCMQATQLPYTFGQGTKLEIK
notes: as for B1
Turning to B3, the affinity in assay [1], expressed as Kd, was 164 nM. Also, the OD450 in [2] lay in the range of 1 to 4 od; in assay [3] it was 0 to 0.09 od; in [4] it was 0 to 0.09 od; in assay [5], 0 to 0.09 od; in assay [6], 1 to 4 od; in assay [7], 0 to 0.09 od. In addition, the OD450 in assay [8] lay in the range of 0 to 0.09 od; in [9] it was 1 to 4 od.

B4: H2M614N (antibody, V domains shown)
VH: EVQLVESGGGLVQPGRSLRLSCAASGFTFDDYAMHWVRQVPGKGLEWVSGITWNSGSIDYADSVKGRFTISRDNAKNSLYLQMNSLRAEDTAFYYCVKEDEAFDYWGQGTLVTVSS
VL: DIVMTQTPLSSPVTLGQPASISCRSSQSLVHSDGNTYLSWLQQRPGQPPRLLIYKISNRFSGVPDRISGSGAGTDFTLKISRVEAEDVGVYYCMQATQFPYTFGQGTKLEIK
notes: as for B1
Take B4: binding in [1] was characterised by a dissociation constant (Kd) of 470 nM. Besides, the OD450 lay within 0.5 to 0.99 od in assay [2]; 0 to 0.09 od in assay [3]; 0 to 0.09 od in assay [4]; 0 to 0.09 od in assay [5]; 1 to 4 od in assay [6]; 0 to 0.09 od in assay [7]. The OD450 in assay [8] lay in the range of 0 to 0.09 od; in [9], 1 to 4 od.

B5: H2M611N (antibody, V domains shown)
VH: EVQLLESGGGLVQPGGSLRLSCAASGFTFSSYAMTWVRQAPGKGLYWVSAISGSGGSAYYADSVKGRFTISRDNSKNTLYLQMNSLRAEDTAVYYCAKEGDSGYDLDYWGRGTLVTVSS
VL: DIQMTQSPSSLSASVGDRVTITCRARQGISNYLAWLQQKPGKAPKSLIYAASSLQSGVPSKFSGSGSGTDFTLTISSLQPEDFATYYCQQYKSSPLTFGGGTKVEIK
notes: as for B1
For B5, the figures for the dissociation constant Kd in [10] and in assay [11] were 72.8 nM and 1090 nM, respectively. Moreover, the T1/2 in assay [10] was determined as 4.1 min; in assay [11], 1.2 min. The OD450 in [2] was 1 to 4 od; in [3], 1 to 4 od; in [4] it was 0 to 0.09 od; in assay [5] it was 1 to 4 od; in [6], 1 to 4 od; in assay [7], 1 to 4 od. For the same molecule, the OD450 in assay [8] was 0 to 0.09 od; in [9], 1 to 4 od.

B6: H1M595N (antibody, V domains shown)
VH: EVQLVESGGGLVQPGGSLRLSCAASGFTFSSYDMHWVRQVTGKGLEWVSVIGTVGDTYYPGSLKGRFTISRENAKNSLYLQMNTLRAGDTAVYYCARTGAAAHSYYYGMDVWGQGTMVTVSS
VL: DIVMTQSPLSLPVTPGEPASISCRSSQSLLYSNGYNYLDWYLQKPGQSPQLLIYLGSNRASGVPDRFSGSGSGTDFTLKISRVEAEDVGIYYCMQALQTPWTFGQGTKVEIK
notes: as for B1
Turning to B6, in [1], binding was put at a Kd of 510 nM. Also, the OD450 was 1 to 4 od in assay [2]; 0 to 0.09 od in assay [3]; 0.5 to 0.99 od in assay [4]; 0 to 0.09 od in assay [5]; 1 to 4 od in assay [6]; 0 to 0.09 od in assay [7]. In assay [9], this molecule registered an OD450 of 1 to 4 od.

B7: H1M592N (antibody, V domains shown)
VH: EVQLVESGGGLVQPGRSLRLSCAASGFTFDDYAMHWVRQAPGKGLEWVSGISWNSGSIGYADSVKGRFTISRDNAKNSLYLQMNSLRAEDTALYYCAKDRFPPYKYNSGGFSDAFEIWGQGTMVTVSS
VL: not shown
notes: as for B1
With B7, the affinity in assay [1], expressed as Kd, was 2100 nM. Further, the OD450 in assay [2] fell in the range of 1 to 4 od; in assay [4], 1 to 4 od; in assay [7], 0.5 to 0.99 od; in assay [9], 1 to 4 od.

B8: H1M613N (antibody, V domains shown)
VH: EVQLVESGGGLVQPGRSLRLSCAASGFTFDDYAMHWVRQAPGKGLEWVSGISWNSGSIGYADSVKGRFTISRDNAKNSLYLQMNSLRAEDTALYYCAKDRFPPYKYNSGGFSDAFEIWGQGTMVTVSS
VL: not shown
notes: as for B1
On to B8, for which the Kd in assay [1] was 2100 nM. Moreover, the OD450 is 1 to 4 od in assay [2], 1 to 4 od in assay [4], 0.5 to 0.99 od in [7] and 1 to 4 od in assay [9].

B9: H3M620N (antibody, V domains shown)
VH: EVQLVESGGNVVRPGGSLRLSCAASGFTFDDYGMTWVRQVPGKGLEWVSGINWNGGSTDYADSVKGRFTISRDNAKNSLYLQMNSLRAEDTALYYCARDKGFYGMDVWGQGTTVTVSS
VL: DIVMTQSPDSLAVSLGERATINCKSSQNPLYNSNKKKYLAWYQQKPGQPPKLVIYWASTRESGVPDRFSGSGSGTDFTLTITSLQAEDVAVYYCQQYYSTPYTFGQGTKLEIK
notes: as for B1
Take B9: the OD450 lay within 1 to 4 od in assay [2]; 0 to 0.09 od in [3]; 0 to 0.09 od in assay [4]; 0 to 0.09 od in assay [5]; 1 to 4 od in [6]; 0 to 0.09 od in assay [7]. The OD450 lay within 0 to 0.09 od in assay [8] and 0.5 to 0.99 od in [9].

B10: H1M615N (antibody, V domains shown)
VH: EVQLVESGGGVVQPGRSLRLSCAASGFTFDDYTMHWVRQVPGKDLKWVSGITWNGGRKAYADSVKGRFTISRDNAKNSLFLQMNSLRAEDTAFYYCAKEDEAFDYWGQGTLVTVSS
VL: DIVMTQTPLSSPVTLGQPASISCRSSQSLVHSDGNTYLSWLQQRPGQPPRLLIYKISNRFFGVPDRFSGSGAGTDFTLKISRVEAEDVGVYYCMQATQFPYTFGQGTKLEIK
notes: as for B1
For B10, in assay [1], the affinity, expressed as Kd, was 162 nM. The “A450 ratio (293/D9/hPAR-2rec to 293/D9 cells)” value in the assay with full length human PAR-2 stood at 2.18. Moreover, the OD450 in [2] lay in the range of 1 to 4 od; in [3], 0 to 0.09 od; in assay [4], 0 to 0.09 od; in assay [5] it was 0 to 0.09 od; in assay [6], 1 to 4 od; in assay [7], 0 to 0.09 od. In addition, the OD450 in assay [8] lay within 0 to 0.09 od; in assay [9] it was 1 to 4 od.
